Positions count from the first letter of the chain named. Numbers in names are those of the source.

This data set deals with the molecule itself. Description: SEC-MALS; Shodex KW404-4F column; 50 μg of protein; PBS pH 7.2.

B1: LIMP-2 luminal domain H150A (domain or fragment, UniProt Q14108 28-431, looked up)
chain: VFQKAVDQSIEKKIVLRNGTEAFDSWEKPPLPVYTQFYFFNVTNPEEILRGETPRVEEVGPYTYRELRNKANIQFGDNGTTISAVSNKAYVFERDQSVGDPKIDLIRTLNIPVLTVIEWSQVAFLREIIEAMLKAYQQKLFVTHTVDELLWGYKDEILSLIHVFRPDISPYFGLFYEKNGTNDGDYVFLTGEDSYLNFTKIVEWNGKTSLDWWITDKCNMINGTDGDSFHPLITKDEVLYVFPSDFCRSVYITFSDYESVQGLPAFRYKVPAEILANTSDNAGFCIPEGNCLGSGVLNVSICKNGAPIIMSFPHFYQADERFVSAIEGMHPNQEDHETFVDINPLTGIILKAAKRFQINIYVKKLDDFVETGDIRTMVFPVMYLNESVHIDKETASRLKSMINT
notes: LIMP-2 (SCARB2), soluble luminal domain, residues 28–431, with H150A; also called dimerization-deficient mutant; source: Expi293F (HEK), purified in the same manner as the wild-type protein
Consider B1, for which the binding result is “binds”.

B2: LIMP-2 luminal domain H150A/F151D (domain or fragment, UniProt Q14108 28-431, looked up)
chain: B1 chain with F124D
notes: LIMP-2 (SCARB2), soluble luminal domain, residues 28–431, with H150A and F151D; also called dimerization-deficient mutant; source: Expi293F (HEK), purified in the same manner as the wild-type protein
Take B2: the binding result was “binds”.
